According to PMC12423313, “Protein-based tools for the detection and characterisation of Oropouche virus infection” (EMBO Molecular Medicine, 2025):

B1: biotinylated nanobody SpA7 (AviTag-His9) (VHH)
VHH: QVQLVESGGGSVQAGGSLRLSCAASGRTFSAYVMGWFRQAPGKEREFVAAIRRSYGSTYYADSVKGRFTISTDNAKNTVTLQMNSLKPEDTAIYYCAAIRQGGGWGSSAVDYWGQGTQVTVAS
notes: VHH A7 against Gc spike from an immunised llama; also called OROV Gc Spike Nb A7 BAP H9; not shown: AviTag, C-terminal, kept
B2: nanobody NpD2, His8-tagged (VHH)
VHH: QVQLVESGGGLAQPGGSLRLSCAASGFTLDYYSIGWFRQAPGKEREGVSCISSGGSTYYADSVKGRFAISSDNAKNTVYLQMNSLKPEDTAVYYCAADIMSCPGKYSAVADYWGQGTQVIVDS
notes: as the VHH of m11; also called OROV Np Nb D2 H8; not shown: His8, C-terminal, kept
B3: nanobody NpE2, His8-tagged (VHH)
VHH: QVQLVESGGGLVQAGDSLRLSCVASGFTPNPAVSWVRQAPGKDLEWVSSIYHGDITSYATSVKGRFTISRDNAKNTVYLQMNSLKPEDSAIYYCTKGDSRGQGTQVTVSS
notes: as the VHH of m12; also called OROV Np Nb E2 H8; not shown: His8, C-terminal, kept
B4: OROV nucleoprotein (N), recombinant, strain BeAn19991 (natural protein, Oropouche virus strain BeAn19991)
chain: MSEFIFNDVPQRTTSTFDPEAAYVAFEARYGQVLNAGVVRVFFLNQKKAKDVLRKTSRPMVDLTFGGVQFAMVNNHFPQFQSNPVPDNGLTLHRLSGYLARWAFTQMRSPIKQAEFRATVVVPLAEVKGCTWNDGDAMYLGFAAGAEMFLQTFTFFPLVIEMHRVLKDGMDVNFMKKVLRQRYGQKTAEQWMREEIVAVRAAFEAVGTLAWARTGFSPAARDFLRQFGIDI
B5: OROV nucleoprotein (N) of strain BeAn19991, native, in virus stocks and infected cells (natural protein, Oropouche virus strain BeAn19991)
chain: MSEFIFNDVPQRTTSTFDPEAAYVAFEARYGQVLNAGVVRVFFLNQKKAKDVLRKTSRPMVDLTFGGVQFAMVNNHFPQFQSNPVPDNGLTLHRLSGYLARWAFTQMRSPIKQAEFRATVVVPLAEVKGCTWNDGDAMYLGFAAGAEMFLQTFTFFPLVIEMHRVLKDGMDVNFMKKVLRQRYGQKTAEQWMREEIVAVRAAFEAVGTLAWARTGFSPAARDFLRQFGIDI
notes: N protein of Oropouche virus strain BeAn19991, GenBank AJE24680.1, as made by the virus; also called OROV BeAn19991
B6: biotinylated nanobody SpC6 (AviTag-His9) (VHH)
VHH: QVQLVESGGGSVQAGGSLRLSCAASGRTFSRYAMGWLRQAPGKEREFVAAITWSGGNTYYADSVKGRFTITRDDAKNTVYLQINNPKPEDTAVYYCAAGTQTGRIRDKGPSYWGQGTQVTVSS
notes: VHH SpC6 from an immunised llama; also called bSpC6; OROV Gc Spike Nb C6 BAP H9; not shown: AviTag, C-terminal, kept
B7: nanobody NpG1, His8-tagged (VHH)
VHH: QVQLVESGGGLVQPGDSLRLSCAASGRTFTDYPMAWFRQAPGKEREFVTAINWSGGATYYADSVKGRFTISRDNTRNTVFLQMNSLKPEDTAVYYCAGGSGRLSYNMDKEYIYWGQGIQVTVSS
notes: as the VHH of m15; also called OROV Np Nb G1 H8; not shown: His8, C-terminal, kept
B8: biotinylated nanobody SpB6 (AviTag-His9) (VHH)
VHH: QVQLVESGGGLVQPGDSLRLSCAASGRTFSNYAMGWFRQAPGKEREKVAALSRSGTSTYYLDRVKGRFTISRDNTKNMVYLQMNSLEPEDTAVYYCAADPLFQNAAYHYSGQGTQVTVST
notes: VHH SpB6 from an immunised llama; also called bSpB6; OROV Gc Spike Nb B6 BAP H9; not shown: AviTag, C-terminal, kept
B9: biotinylated nanobody SpE8 (AviTag-His9) (VHH)
VHH: QVQLVESGGGFVRAGDSLRLSCAASGRAFSTYAMGWFRQAPGKEREFVAGITLGSRITQYADSVKGRFTISRDNARQTMYLQMNNLQPEDTADYYCAARGQGSPPLRNRWSADDYNYWGQGLQVTVSS
notes: VHH SpE8 from an immunised llama; also called bSpE8; OROV Gc Spike Nb E8 BAP H9; not shown: AviTag, C-terminal, kept
B10: biotinylated nanobody SpA9 (AviTag-His9) (VHH)
VHH: QVQLVESGGGLVQPGGSLTLSCAASGFTFSTLAMAWFRQAPGKERESVAVINRSGGIVNYADSVKGRFTITRDNAKNMVYLQMNSLKPEDTAVYYCAARTGYAYVRVSDYDSWGQGTQVTVSS
notes: VHH A9 against Gc spike from an immunised llama; also called OROV Gc Spike Nb A9 BAP H9; not shown: AviTag, C-terminal, kept
B11: nanobody NpA2, His8-tagged (VHH)
VHH: QVQLVESGGGLVQPGGSVRLSCAASGGIFSFNAMAWYRQAPGKQRDIVALIANDGNTNYADSVKGRFTISRDNAKNTVYLQMNSLQPEDTAVYYCSALRRGAQDWGQGTQVTVSS
notes: as the VHH of m10; also called OROV Np Nb A2 H8; not shown: His8, C-terminal, kept
B12: nanobody NpE3, His8-tagged (VHH)
VHH: QVQLVESGGGLVRPGGSLRLSCAASGFTFSNAYMTWIRQAPGKDLEWVSSIYYGDMTSYATSVKGRFTISRDNAKNTLYLQMNNLKPEDSAIYYCTKGDERGQGTQVTVSS
notes: as the VHH of m13; also called OROV Np Nb E3 H8; not shown: His8, C-terminal, kept

Columns and labels:
[1] = target: T1, OROV Gc spike region (residues 482-894 of the M polyprotein), recombinant, strain BeAn19991 (Oropouche virus strain BeAn19991, UniProt A0A0B5CLT0); assay: ELISA; […], biotinylated nanobody 2 µg/mL, […], room temperature; conditions: both partners purified
T1 construct: Gc spike region (head and stalk domains) of the M polyprotein of Oropouche virus strain BeAn19991, GenBank AJE24679.1, residues 482-894; also called Gc spike domain

[2] = target: B4; assay: ELISA; conditions: both partners purified
[3] = target: T2, biotinylated nanobody-Fc fusion bFcNpD2 (C-terminal AviTag) (llama); assay: ELISA
T2 construct: as the VHH of m11; also called OROV FcNpD2 BAP; not shown: Fc (human IgG1 hinge and Fc domains 2 and 3), C-terminal, kept; AviTag, C-terminal, kept

[4] = target: T3, nanobody-Fc fusion FcNpD2, HRP-conjugated (llama); assay: ELISA
T3 construct: as the VHH of m11; also called OROV FcNpD2; not shown: Fc (human IgG1 hinge and Fc domains 2 and 3), C-terminal, kept

Binder | binding result [1] | binding result [2] | other results
B1 | binds |  | 
B2 |  | binds | 
B3 |  | binds | 
B4 |  |  | binding result ([3]; both partners purified): binds; binding result ([4]; both partners purified): binds
B5 |  |  | binding result ([3]; one partner purified): binds; binding result ([4]; one partner purified): binds
B6 | binds |  | 
B7 |  | binds | 
B8 | binds |  | 
B9 | binds |  | 
B10 | binds |  | 
B11 |  | binds | 
B12 |  | binds | 
